# T1: HMGA2 (high-mobility-group protein AT-hook 2) (mammalian (species ), UniProt P52926 1-109)
# T1 sequence: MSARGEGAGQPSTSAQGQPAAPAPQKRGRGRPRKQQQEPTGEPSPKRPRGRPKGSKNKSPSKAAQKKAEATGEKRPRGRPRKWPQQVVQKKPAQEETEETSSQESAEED
# Biological target: T1, HMGA2 (high-mobility-group protein …)
# Assay: PDI-ELISA
binder,measurement,value
FL842/FL843 (SELEX1 duplex) (dsDNA) DNA 1: CCCCCCATATTCGCGATTATTGCGC DNA 2: GCGCAATAATCGCGAATATGGGGGG,binding result,binds
